Data from US20240109958A1 (Genentech, published 2024).
Positions count from the first letter of the chain named. Groups on a side chain read outwards from the residue. No end group written: not given here.

T1: biotinylated K-ε-GG peptide (AAA{K-ε-GG}AAA) (also: biotinylated, position not given here)
T1 construct: also called branched diglycine peptide
T1 peptide: AAAK([Gly-Gly])AAA

B1: anti-GGX monoclonal antibody 1C7 (rabbit IgG) (antibody, V domains shown)
VH: QSVKESGGRLVTPGTPLTLTCKVSGFSLSSYYMNWVRQAPGKGLEWIGIMFPNGKIYYATWAKGRFTISKTSTTVDLKIISPTTEDTATYFCTGDDSGDVNIWGPGTLVTVSS
VL: DIVLTQTASPVSAAVGGTVTINCQSSQSVYTNNRLAWYQQKPGQPAKEMIYGASTLPSGVSSRFKGSGSGTQFALTISDVQCDDAATYYCLGTYDCLSADCLAFGGGTKLEIKG
notes: also called anti-GGX antibody 1C7; anti-GGX mAb
B2: anti-GGX monoclonal antibody 2H2 (rabbit IgG) (antibody, V domains shown)
VH: B1 VH with K4E, G7R
VL: B1 VL with I2P, V3M, T31S, A46P, A74T, K109E, L110V, E111V, I112V
notes: also called anti-GGX antibody 2H2; anti-GGX 2H2 antibody
B3: anti-GGX monoclonal antibody 2B12 (rabbit IgG) (antibody, V domains shown)
VH: QSVEESGGGLVTPGGALTLTCTASGFSLNRHWMNWVRQAPGKGLEWIGAINESGRTYYATWAKGRFFISKTTTTVDLKITSPTTADTATYFCVRDDDVSNFWGPGTLVTVSS
VL: DPMLTQTPSSVSAAVGGTVSINCQSTKSVYKYNHLSWYQQKPGQPPKQLIFPASTLQSGVPSRFSGSGSGTQFTLTISDVQCDDAATYYCLGLYDCRSGDCNVFGGGTKLEIKG
notes: also called anti-GGX antibody 2B12
B4: anti-GGX monoclonal antibody 2E9 (rabbit IgG) (antibody, V domains shown)
VH: QKQLMESGGRLVTPGTPLTLTCKVSGFSLSSYYMNWVRQAPGKGLEWIGIMFPNGKIYYATWAKGRFTISKTSTTVDLKIISPTTEDTATYFCTGDDSGDVNIWGPGTLVTVSS
VL: B1 VL with T93E, Y94F, L97T, L102F, A103V, K109E, L110V, E111V, I112V
notes: also called anti-GGX antibody 2E9; anti-GGX 2E9 antibody

Biological target: T1, biotinylated K-ε-GG peptide …
Assay: ELISA, biotinylated peptide on neutravidin plates
Description: Biotinylated peptides (GGM and K-ε-GG) were coated at 1 μg/mL in PBS on neutravidin ELISA plates (Thermo Scientific) in triplicate overnight at 4° C. Plates were washed with PBST prior to use. Serial dilutions of GGX mAbs or K-ε-GG mAb (Cell Signaling Technology) at 1 μg/mL were added for 1-2 hours at 25° C. Plates were washed and further developed as described above (see FIG. 1E).
B1: no binding (tested: 1 µg/mL). B2: no binding (tested: 1 µg/mL). B3: no binding (tested: 1 µg/mL). B4: no binding (tested: 1 µg/mL).
